A short description of this data set: collision cross section of modified peptide (TIMS, N2, iRT-aligned); higher = larger / more extended gas-phase ion. In short, it runs like this: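 On a timsTOF Pro/HT (dda-PASEF, nitrogen, ~2.4 mbar), synthetic peptide pools were analysed after a 120-min nanoflow C18 separation at 60 °C and identified in MaxQuant. Three reference ions served for 1/K0 calibration, with run-wise alignment to the median iRT peptide deviation. Collision cross section comes from the Mason-Schamp equation, using the most abundant feature per charge state averaged over 1–3 technical replicates.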

Setting [1] is: charge state: 2, modification: Acetyl (K).
Where [2] appears, read: charge state: 3, modification: Acetyl (K).
Setting [3] is: charge state: 2, modification: Biotin.
[4] abbreviates: charge state: 2, modification: Butyryl.
[5] abbreviates: charge state: 3, modification: Butyryl.
The mark [6] stands for this setting: charge state: 2, modification: Crotonyl.
[7] abbreviates: charge state: 3, modification: Crotonyl.
[8] abbreviates: charge state: 2, modification: Dimethyl (K).
[9] abbreviates: charge state: 3, modification: Dimethyl (K).
Setting [10] is: charge state: 2, modification: Formyl.
Setting [11] is: charge state: 3, modification: Formyl.
Setting [12] is: charge state: 2, modification: Glutarylation.
Setting [13] is: charge state: 3, modification: Glutarylation.
Where [14] appears, read: charge state: 2, modification: GlyGly (K).
The mark [15] stands for this setting: charge state: 3, modification: GlyGly (K).
[16] abbreviates: charge state: 2, modification: Malonyl.
[17] abbreviates: charge state: 3, modification: Malonyl.
Setting [18] is: charge state: 3, modification: Methyl (K).
The mark [19] stands for this setting: charge state: 2, modification: Succinyl.
[20] abbreviates: charge state: 3, modification: Succinyl.
The mark [21] stands for this setting: charge state: 3, modification: Trimethyl (K).
Where [22] appears, read: charge state: 2, modification: hydroxyisobutyryl.
[23] abbreviates: charge state: 3, modification: hydroxyisobutyryl.
[24] abbreviates: charge state: 2, modification: Nitro (Y).
Where [25] appears, read: charge state: 2, modification: Phospho (Y).

± gives the standard deviation.

In the case of “TEVLSPNSKVESK [_TEVLSPNSK(Acetyl (K))VESK_]”, the collision cross section stood at 411.3 ± 1.6 Å² under setting [1] and 448.45 ± 2.4 Å² under setting [2].
Regarding TEVLSPNSKVESK [_TEVLSPNSK(Biotin)VESK_], the collision cross section reads like this: under setting [3], 425.18 ± 3.5 Å²; (charge state: 3, modification: Biotin) 487.32 ± 1.7 Å².
For the sequence “TEVLSPNSKVESK [_TEVLSPNSK(Butyryl)VESK_]”, the collision cross section by setting is: under setting [4], 418.57 ± 0.77 Å²; under setting [5], 463.23 ± 20 Å².
In the case of “TEVLSPNSKVESK [_TEVLSPNSK(Crotonyl)VESK_]”, the collision cross section reads like this: under setting [6], 417.97 ± 0.81 Å²; under setting [7], 452.38 ± 1.3 Å².
Consider “TEVLSPNSKVESK [_TEVLSPNSK(Dimethyl (K))VESK_]”, for which the collision cross section is, setting by setting: under setting [8], 400.19 ± 1.6 Å²; under setting [9], 477.45 ± 2.4 Å².
For TEVLSPNSKVESK [_TEVLSPNSK(Formyl)VESK_], the collision cross section runs as follows: under setting [10], 404.6 ± 5.2 Å²; under setting [11], 443.86 ± 4.1 Å².
Turning to “TEVLSPNSKVESK [_TEVLSPNSK(Gluratylation)VESK_]”, the collision cross section is 408.15 ± 0.5 Å² under setting [12] and 453.95 ± 1.7 Å² under setting [13].
As to “TEVLSPNSKVESK [_TEVLSPNSK(GlyGly (K))VESK_]”, the collision cross section by setting is: under setting [14], 404.73 ± 5.7 Å²; under setting [15], 492.13 ± 0.88 Å².
For the sequence “TEVLSPNSKVESK [_TEVLSPNSK(Malonyl)VESK_]”, the collision cross section under setting [16] worked out at 400.58 ± 1.9 Å² and the collision cross section under setting [17] is listed as 444.22 ± 3.4 Å².
Turning to “TEVLSPNSKVESK [_TEVLSPNSK(Methyl (K))VESK_]”, the collision cross section is 412.51 ± 2.6 Å² (charge state: 2, modification: Methyl (K)) and 437.62 ± 4.3 Å² under setting [18].
Consider “TEVLSPNSKVESK [_TEVLSPNSK(Propionyl)VESK_]”, for which the collision cross section is, setting by setting: (charge state: 2, modification: Propionyl) 413.62 ± 0.97 Å²; (charge state: 3, modification: Propionyl) 453.73 Å².
Regarding “TEVLSPNSKVESK [_TEVLSPNSK(Succinyl)VESK_]”, the collision cross section runs as follows: under setting [19], 402.26 ± 0.79 Å²; under setting [20], 458.68 ± 13 Å².
In the case of “TEVLSPNSKVESK [_TEVLSPNSK(Trimethyl (K))VESK_]”, the collision cross section was found to be 405.78 ± 0.61 Å² (charge state: 2, modification: Trimethyl (K)) and 479.92 ± 1.6 Å² under setting [21].
Consider “TEVLSPNSKVESK [_TEVLSPNSK(hydroxyisobutyryl)VESK_]”, for which the collision cross section is 419.54 ± 0.31 Å² under setting [22] and 455.3 ± 1.9 Å² under setting [23].
TEVNSGFFYK [_TEVNSGFFY(Nitro (Y))K_] registered a collision cross section under setting [24] of 367.43 ± 0.8 Å².
Take TEVNSGFFYK [_TEVNSGFFY(Phospho (Y))K_]: under setting [25], the collision cross section turned out to be 373.38 ± 0.68 Å².
“TFGKAAGPSLSHTSGGTQSK [_TFGK(Acetyl (K))AAGPSLSHTSGGTQSK_]”: the collision cross section by setting is: under setting [1], 486.77 ± 4.6 Å²; under setting [2], 516.14 ± 6 Å².
As to “TFGKAAGPSLSHTSGGTQSK [_TFGK(Butyryl)AAGPSLSHTSGGTQSK_]”, the collision cross section was determined as 496.92 ± 1.5 Å² under setting [4] and 514.77 ± 3.5 Å² under setting [5].
“TFGKAAGPSLSHTSGGTQSK [_TFGK(Crotonyl)AAGPSLSHTSGGTQSK_]” showed a collision cross section under setting [7] of 515.47 ± 1.3 Å².
Regarding “TFGKAAGPSLSHTSGGTQSK [_TFGK(Dimethyl (K))AAGPSLSHTSGGTQSK_]”, under setting [9], the collision cross section was determined as 547.87 ± 1.3 Å².
Consider “TFGKAAGPSLSHTSGGTQSK [_TFGK(Formyl)AAGPSLSHTSGGTQSK_]”, for which the collision cross section reads like this: under setting [10], 488.52 ± 0.72 Å²; under setting [11], 508.22 ± 1.5 Å².
The sequence “TFGKAAGPSLSHTSGGTQSK [_TFGK(Gluratylation)AAGPSLSHTSGGTQSK_]” registered a collision cross section under setting [13] of 518.15 ± 2 Å².
As for “TFGKAAGPSLSHTSGGTQSK [_TFGK(GlyGly (K))AAGPSLSHTSGGTQSK_]”, under setting [15], the collision cross section worked out at 526.57 ± 0.59 Å².
On to “TFGKAAGPSLSHTSGGTQSK [_TFGK(Malonyl)AAGPSLSHTSGGTQSK_]”, for which, under setting [17], the collision cross section was determined as 514.27 ± 0.92 Å².
The sequence “TFGKAAGPSLSHTSGGTQSK [_TFGK(Methyl (K))AAGPSLSHTSGGTQSK_]” registered a collision cross section under setting [18] of 525.9 ± 1.3 Å².
Consider “TFGKAAGPSLSHTSGGTQSK [_TFGK(Succinyl)AAGPSLSHTSGGTQSK_]”, for which the collision cross section is 476.24 Å² under setting [19] and 513.01 ± 0.73 Å² under setting [20].
For the sequence “TFGKAAGPSLSHTSGGTQSK [_TFGK(Trimethyl (K))AAGPSLSHTSGGTQSK_]”, the collision cross section under setting [21] is given as 559.57 ± 0.94 Å².
As to “TFGKAAGPSLSHTSGGTQSK [_TFGK(hydroxyisobutyryl)AAGPSLSHTSGGTQSK_]”, the collision cross section by setting is: under setting [22], 498.68 ± 0.33 Å²; under setting [23], 512.39 ± 2.8 Å².
As to “TGGTQTDLFTCGKCK [_TGGTQTDLFTCGK(Butyryl)CK_]”, the collision cross section under setting [4] was 444.65 Å².
In the case of “TGGTQTDLFTCGKCK [_TGGTQTDLFTCGK(Gluratylation)CK_]”, the collision cross section under setting [12] was determined as 442.58 Å².
For the sequence “TGGTQTDLFTCGKCK [_TGGTQTDLFTCGK(GlyGly (K))CK_]”, the collision cross section runs as follows: under setting [14], 442.06 Å²; under setting [15], 489.77 ± 1.1 Å².
As for “TGGTQTDLFTCGKCK [_TGGTQTDLFTCGK(Malonyl)CK_]”, the collision cross section under setting [16] is given as 436.14 ± 0.67 Å².
As for “TGGTQTDLFTCGKCK [_TGGTQTDLFTCGK(Succinyl)CK_]”, the collision cross section under setting [19] is 437.09 Å².
With “TGGTQTDLFTCGKCK [_TGGTQTDLFTCGK(hydroxyisobutyryl)CK_]”, the collision cross section under setting [22] came out at 448.92 Å².
For “TGPPGSTGSR [_TGPP(Hydroxyproline)GSTGSR_]”, the collision cross section (charge state: 2, modification: Hydroxyproline) came out at 312.97 ± 0.79 Å².
For the sequence “TGPPGSTGSRGPPGPPGR [_TGPPGSTGSRGPPGPP(Hydroxyproline)GR_]”, the collision cross section (charge state: 3, modification: Hydroxyproline) is on record as 472.54 ± 0.36 Å².
With THLAPYSDELR [_THLAPY(Nitro (Y))SDELR_], the collision cross section stood at 377.13 ± 2.5 Å² under setting [24] and 453.98 ± 1.8 Å² (charge state: 3, modification: Nitro (Y)).
As for “THLAPYSDELR [_THLAPY(Phospho (Y))SDELR_]”, the collision cross section is recorded as 373.88 ± 0.063 Å² under setting [25] and 446.73 ± 1.1 Å² (charge state: 3, modification: Phospho (Y)).
In the case of “THLGEALAPLSK [_THLGEALAPLS(HexNAc (ST))K_]”, the collision cross section by setting is: (charge state: 2, modification: HexNAc (ST)) 397.68 ± 0.13 Å²; (charge state: 3, modification: HexNAc (ST)) 475.05 ± 25 Å².
As for TLDEILQEKK [_TLDEILQEK(Acetyl (K))K_], the collision cross section was 377 ± 0.3 Å² under setting [1] and 448.44 Å² under setting [2].
TLDEILQEKK [_TLDEILQEK(Biotin)K_] returned a collision cross section under setting [3] of 403.31 Å².
Turning to TLDEILQEKK [_TLDEILQEK(Butyryl)K_], the collision cross section is, setting by setting: under setting [4], 383.05 ± 1.3 Å²; under setting [5], 449.71 ± 2 Å².
Regarding TLDEILQEKK [_TLDEILQEK(Crotonyl)K_], the collision cross section runs as follows: under setting [6], 381.71 ± 0.8 Å²; under setting [7], 444.38 ± 1.6 Å².
Take TLDEILQEKK [_TLDEILQEK(Dimethyl (K))K_]: the collision cross section turned out to be 379.42 ± 0.37 Å² under setting [8] and 430.63 ± 2 Å² under setting [9].
The sequence TLDEILQEKK [_TLDEILQEK(Formyl)K_] registered a collision cross section under setting [10] of 372.98 ± 1.9 Å².

The record behind these values is the supplement of paper PMC10598134.
